For this assay, the target named is T1, SARS-CoV-2 BQ.1.1 RBD (SARS-CoV-2, Omicron BQ.1.1, L452R | K444T).
T1 construct: also called L452R RBD of BQ.1.1
The assay can be described thus: BLI; antibody (IgG1, 11 μg/mL) loaded on AHC2 biosensor to about 1.5 nm; RBD in solution, association 300 s, dissociation 600 s; PBS-TB (PBS, 0.02% v/v Tween-20, 0.1% w/v BSA); 25°C; 1,000 rpm; binding response less than 0.1 considered non-binding. The conditions noted are these: both partners purified. (BLI is a label-free optical method that tracks binding on a fibre tip over time.)

B1: BD56-595 N56 allelic variant (antibody, V domains shown)
VH: QITLKESGPTLVKPTQTLTLTCTFSGFSITTAGVGVGWIRQPPGKALEWLALIYWNGDRRYSPSLKNRVDITTDISKNQVVLTMTNMAPVDTATYYCAQHTIDMILDYWGQGTLVTVSS
VL: QSALTQPPSASGSPGQSVTISCTATSSDVGAYNYVSWYQQHPGKAPKLMIYEVNKRPSGVPDRFSGSKSGNTASLTVSGLQAEDEADYYCSSYTDNIVFGTGTRVTVL
notes: as the heavy chain of m12, with N56 in place of D56; numbers count on: IMGT unique numbering, excluding any gaps; as the light chain of m12; IgG1; also called N56 allele
Consider B1, for which the “fold increase in binding affinity against the D56 variant” value is 57 fold.

B2: BD57-028 N56 allelic variant (antibody, V domains shown)
VH: QITLKESGPTLVKPTQTLTLTCTFSGFSLSASGEGMGWIRQPPGKALEWLALIYWNADERYSPSLRSRLTITKDTSKNQVVLKMTNMNPVDTATYYCAHHSITTVVDYWGQGMLVTVSS
VL: QSALTQPASVSGSPGQSITISCTGTISDVGAFNYVSWYQQHPGRAPKLIIYDVSTRPSGISIRFSGSKSGNTASLTISGLQPEDEADYYCSSYSHTSLVFGTGTKVTVL
notes: as the heavy chain of m8, with N56 in place of D56; numbers count on: IMGT unique numbering, excluding any gaps; as the light chain of m8; IgG1; also called N56 allele
In the case of B2, the “fold increase in binding affinity against the D56 variant” value is 57 fold.

(Values after publication PMC11746035 (Frontiers in Immunology, 2024).)
